What follows are sequences tested on Escherichia coli TOP10 (assay: shrunken log2 fold change of peptide-encoding DNA abundance (4.5 h post-induction vs induction); higher = less antimicrobial activity (less host growth inhibition)). Settings: time post-induction: 4.5 h; library: site-saturation at positions 5, 18, 19, 20.
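Also: peptides expressed intracellularly from a pBAD plasmid library in pooled LB shake-flask culture, induced with 0.3% L-arabinose, DNA abundance read by NGS, three biological replicates, DESeq2 with apeglm shrinkage.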

Sequence	shrunken log2 fold change
RRIRFRPPRLPRPRPRPDRKPRP	0.00132
RRIRPRPPRLPRPRPRPHCHPRP	-0.0394
RRIRHRPPRLPRPRPRPERIPRP	-0.0507
RRIRCRPPRLPRPRPRPWHSPRP	0.112
RRIRFRPPRLPRPRPRPIAHPRP	-0.109
RRIRVRPPRLPRPRPRPPPGPRP	1.01
RRIRQRPPRLPRPRPRPNVMPRP	-0.254
RRIRKRPPRLPRPRPRPPESPRP	0.303
RRIRGRPPRLPRPRPRPSWVPRP	0.0128
RRIRHRPPRLPRPRPRPILHPRP	-0.0471
RRIRDRPPRLPRPRPRPDNQPRP	-0.105
RRIRRRPPRLPRPRPRPYMVPRP	-0.361
RRIRARPPRLPRPRPRPGTRPRP	0.532
RRIRHRPPRLPRPRPRPWWDPRP	-0.0461
RRIRNRPPRLPRPRPRPNMAPRP	-0.214
RRIRYRPPRLPRPRPRPDYCPRP	-0.00674
RRIRVRPPRLPRPRPRPRAKPRP	0.16
RRIRLRPPRLPRPRPRPVCRPRP	0.091
RRIRHRPPRLPRPRPRPQSGPRP	0.165
RRIRHRPPRLPRPRPRPKVYPRP	0.0338
RRIRERPPRLPRPRPRPSRKPRP	0.113
RRIRGRPPRLPRPRPRPYGGPRP	-0.26

Sequence	shrunken log2 fold change
RRIRLRPPRLPRPRPRPGQFPRP	0.16
RRIRQRPPRLPRPRPRPWNLPRP	-0.0507
RRIRIRPPRLPRPRPRPPDGPRP	1.84
RRIRDRPPRLPRPRPRPHPVPRP	-0.0422
RRIRKRPPRLPRPRPRPRAIPRP	0.304
RRIRCRPPRLPRPRPRPRDCPRP	0.313
RRIRSRPPRLPRPRPRPRVQPRP	-0.25
RRIRMRPPRLPRPRPRPVWEPRP	0.4
RRIRKRPPRLPRPRPRPCYPPRP	-0.446
RRIRARPPRLPRPRPRPSYSPRP	-0.349
RRIRFRPPRLPRPRPRPREVPRP	0.199
RRIRNRPPRLPRPRPRPLLHPRP	-0.135
RRIRYRPPRLPRPRPRPYLEPRP	-1.7
RRIRTRPPRLPRPRPRPWFQPRP	-0.195
RRIRPRPPRLPRPRPRPLNEPRP	-0.348
RRIRARPPRLPRPRPRPKDQPRP	0.504
RRIRGRPPRLPRPRPRPCVQPRP	0.523
RRIRWRPPRLPRPRPRPSSLPRP	0.449
RRIRGRPPRLPRPRPRPELNPRP	0.724
RRIRSRPPRLPRPRPRPGYIPRP	-0.0571
RRIRMRPPRLPRPRPRPYLFPRP	-0.0192
RRIRMRPPRLPRPRPRPYCMPRP	-0.53

Sequence	shrunken log2 fold change
RRIRNRPPRLPRPRPRPFGTPRP	-0.214
RRIRMRPPRLPRPRPRPFRWPRP	-0.0454
RRIRLRPPRLPRPRPRPIYMPRP	-0.199
RRIRVRPPRLPRPRPRPMEWPRP	-0.125
RRIRVRPPRLPRPRPRPIMAPRP	-0.111
RRIRSRPPRLPRPRPRPAMEPRP	-0.0044
RRIRARPPRLPRPRPRPRWRPRP	0.934
RRIRDRPPRLPRPRPRPEVTPRP	-0.000921
RRIRIRPPRLPRPRPRPTTIPRP	-0.578
RRIRLRPPRLPRPRPRPRPCPRP	0.421
RRIRWRPPRLPRPRPRPTKYPRP	-0.124
RRIRWRPPRLPRPRPRPYQDPRP	-0.411
RRIRSRPPRLPRPRPRPILRPRP	-0.0847
RRIRARPPRLPRPRPRPFLSPRP	-0.107
RRIRKRPPRLPRPRPRPTISPRP	-0.279
RRIRTRPPRLPRPRPRPVTPPRP	0.184
RRIRARPPRLPRPRPRPLSHPRP	0.186
RRIRNRPPRLPRPRPRPVAGPRP	-0.124
RRIRIRPPRLPRPRPRPKCWPRP	0.139
RRIRCRPPRLPRPRPRPLDMPRP	-0.549
RRIRGRPPRLPRPRPRPIDLPRP	0.00416
RRIRRRPPRLPRPRPRPVHCPRP	0.345

Sequence	shrunken log2 fold change
RRIRKRPPRLPRPRPRPTWGPRP	0.317
RRIRWRPPRLPRPRPRPDLLPRP	0.0586
RRIRRRPPRLPRPRPRPCPCPRP	-0.176
RRIRKRPPRLPRPRPRPNAYPRP	-0.082
RRIRQRPPRLPRPRPRPYDHPRP	-0.534
RRIRHRPPRLPRPRPRPYCIPRP	-0.21
RRIRRRPPRLPRPRPRPFVHPRP	0.0512
RRIRNRPPRLPRPRPRPIYQPRP	0.0607
RRIRRRPPRLPRPRPRPTELPRP	0.42
RRIRGRPPRLPRPRPRPSNWPRP	1.12
RRIRERPPRLPRPRPRPIWHPRP	-0.0406
RRIRQRPPRLPRPRPRPLIDPRP	-0.206
RRIRARPPRLPRPRPRPMVRPRP	0.348
RRIRRRPPRLPRPRPRPCTYPRP	-0.27
RRIRCRPPRLPRPRPRPKFIPRP	-0.653
RRIRSRPPRLPRPRPRPCTVPRP	-0.253
RRIRERPPRLPRPRPRPSEIPRP	-0.16
RRIRKRPPRLPRPRPRPQSFPRP	0.327
RRIRWRPPRLPRPRPRPHPCPRP	0.12
RRIRNRPPRLPRPRPRPMPQPRP	-0.0321
RRIRGRPPRLPRPRPRPPSKPRP	0.58
RRIRSRPPRLPRPRPRPHEQPRP	0.128

Sequence	shrunken log2 fold change
RRIRFRPPRLPRPRPRPVADPRP	-0.00475
RRIRRRPPRLPRPRPRPLETPRP	1.01
RRIRTRPPRLPRPRPRPRPTPRP	0.626
RRIRDRPPRLPRPRPRPERHPRP	1.06
RRIRQRPPRLPRPRPRPNGWPRP	-0.0145
RRIRPRPPRLPRPRPRPRLVPRP	0.323
RRIRRRPPRLPRPRPRPGAQPRP	0.352
RRIRNRPPRLPRPRPRPHKLPRP	-0.411
RRIRHRPPRLPRPRPRPYIFPRP	-0.446
RRIRHRPPRLPRPRPRPSEYPRP	-0.787
RRIRSRPPRLPRPRPRPYNEPRP	-0.554
RRIRLRPPRLPRPRPRPMVNPRP	-0.0358
RRIRCRPPRLPRPRPRPWNCPRP	-0.142
RRIRERPPRLPRPRPRPVDPPRP	-0.342
RRIRERPPRLPRPRPRPPRKPRP	0.387
RRIRMRPPRLPRPRPRPYMCPRP	0.00451
RRIRNRPPRLPRPRPRPGNFPRP	-0.0496
RRIRIRPPRLPRPRPRPEGNPRP	0.0775
RRIRVRPPRLPRPRPRPHLCPRP	-0.137
RRIRLRPPRLPRPRPRPRLGPRP	0.518
RRIRFRPPRLPRPRPRPDLWPRP	0.187

Reference: the supplement of paper PMC9112550, “Optimization of the antimicrobial peptide Bac7 by deep mutational scanning” (BMC Biology, 2022)
